From a protein production outcome set (Wang et al. 2014)

Experiment: label from the status in PepcDB records

| Sequence | protein production |
| --- | --- |
| MERAFLRYVPILAFITIMTMYVEMVILPSLPEIENQFSITSSEASWVLSSETLAGMTLAPFLGKLADSYGRKKVLISILVVYILSVFLTAISPNYSILLISRSIQGIGLSINPIAYTILRERIPDRELPIAQGIIASTFAIGAAVALPIGSYISQYFSWEFAYETAIPLLILSTIIIYVILPSSESKGSDRKIDDVGVILLSLSFLILGIGLTEAPTWGWTSLQFFTSLLLSILLFYLFALHISKSRNPIIDPYDFKNPNVAVPLISSFITGFGLFLTFQSLVFIFELPSPIGYGMTILQTGETMAPIALIILIAGPFFGRLVTKIGYMKVILTSSSVSSFLLLFLAYIISLRISVLELMGFLSLILFFISGMNVTRVTLLIASSKRERMSTLTGTNTSMRLMGNTLGPIVVGSLEDTFKTPIFEGYLNNIPIFAFVPSRLAFEYAFLISMATTVLVTILATRIRERPSTTTYA | failed |
| MGRGRSSSSSSIESSSKSNPFGASSSTRNLSTDLRLGLSFGTSSGTQYFNGGYGYSVAAPAVEDAEYVAAVEEEEENECNSVGSFYVKVNMEGVPIGRKIDLMSLNGYRDLIRTLDFMFNASILWAEEEDMCNEKSHVLTYADKEGDWMMVGDVPWEMFLSTVRRLKISRANYHY | failed |
| MQAIAIDQFSEPEETQVEQVENPDRNEAGYEVCNQSGENLSVAIAYFDTSIDSYRSEGWWNLDQSKCQFFPNLLDSVDEVYVFAESDQTLWSGDFPFCMQEDAFEYPDANRDRCPSPAYSKGFLKVEVGDAKTWTTNLTPSQLEHHHHHH | failed |
| MRRASQMFDFIGFKEGAMAFLLAFALAGLFTIAFKYVYQWVTPYNEKALIREGNTAAAIALAGALIGYVLPLASALSHTVSLPEFAAWATLAGVIQIAAFTGVRLVALPDVKARIENGEVSVGVYLAGISIAVGLLNAACMTT | failed |
| MGIHAKLETVQLPLLVSCLFPPLTMPAKDVQICPIAVDTTVFRSRTWDRLKFEIEYGLQRGTTANSYLISADKIALFDPPGESFTDNFVGTLIQRLDLNSLDYVILGHVNANRAHTLKLLLSLAPQATIICSNPAAQNLEKLLADAEVNNPIQVMKGNDHLDLGRGHELTFIPTPSPRYPGQLCTYDPRTEILFTDKLFGAHVCGDQVFDEGWTIYQEDRRYYFDCLLAPAAAQVSAALNKLEAYPAQTYAPSHGPLVRYGLRELTRNYQQWLSEQQAQALNVALIYASAYGNTSTLAQAIARGITKAGVAVTAINAETSNAEEIKEAIGKSAGFIFGSPTLGGHAPTPIQTALGITLANASKTQLCGVFGSFGWSGEAIDMLENKFRDAGFSFGFDTIRVKFKPTDQTLKMCEEAGTDFAQALKKAEKRRQPKSALPESESARTEQALGRLVGSLCVVTAQQGELSSAMLASWVSQATFSPPGLTVAVAKERAIESLLHKNSCFVLNILQEGNHLGLMKHFLKPFAPGGDRFADVATETAENGAPILTESLAYLECRVQQRLECGDHWVLYAVTDRGALLKDGVTAVHHRKSGDHY | failed |
| METLELFKVISRWLFLLSIGYYLLTNLQWYSYKIERVFFKHHKWRWHILYFFMPILFFFLLGDYFYIYLYVAQLPGVMLWAKKLDKPLIFTGRVKRFFAIYAGFMLFSELLCTTTGGECDKVLYLFPLFFTILITYVLERVLLNRYATAAKDKLASMPNLTIIAITGSYGKTSLKNFLAQILNDNFKVHASPRSVNTFAGIVADINENLSPLSDIYIAEAGARTRGDIKEIGVLLEHHYGIVGKVGEQHMEYFRTLENVRETKFELAQSPRLKELFSYEGNTPPSGIKATSFPTETRNIKATLKGTSFEMLIEGQFYPFETEVLGEFNVTNISAAILVALRLGIPIEKIQRQVARLKPIPHRLQKMEVNLKLILDDSFNGNLEGMLEAIRLSSLYYGRKVIVTPGLVESTEEANTTLAQAINETFDIAILTGELNLKTLSAHIQKPQKVVVKEKEALEEVLKATTREGDLILFANDAPSYI | failed |
| MGGKWSTPSFDEAARLVLGRGFHHVSLCAAGYFSDGNETIHRESVLSAIDPSVRVETIPCLNDSPHLIACLAGRVVAASRQILAFSGDLKG | failed |
| MNRTAMRASQKDFENSMNQVKLLKKDPGNEVKLKLYALYKQATEGPCNMPKPGVFDLINKAKWDAWNALGSLPKEAARQNYVDLVSSLSPSLESSSQVEPGTD | not failed |
| MFGLVDAVSFYARAEKVFDPSIRHKPVVVLTNNDGCICAVCPIARQLGVPKFVPYFKVKSFLAKHGVVVRSSNYELYADLSERMMNVIARYSDNHYVYSIDESFLHFKNFSCVDNWHEYGHVIRKAVWRETRLPVGVGFGATLTLAKAANHASKKLSGFDGVAVIDDKASRKEILSRMSLTEVWGIGSKLGKRLSILGLKNGWDLANQSPKAMRGQFGVVVERTVNELNGMPCLQWDEIGQDKQEIFSTRSFGQRVTDGHALKAALSSHASIVGAKVRRQGSLIKRLVIFASSSPHDDSYYKKSVIYEFPIATDNILKLVGAISYVFDNIYRQGVSFYRCGVGGVELENSQFQQQDMFSLSVNNPPLMKCYDQINHRYGRGAVEVAIAEKNEKWAMRRNFLSPRSTSNWSEIPKINCLEHHHHHH | failed |
| MACTVDFRCLDEGFGGKTYKRKRESQEQAAAEAIADEASMDIDGAPPAAKRSAVASSENPDKPIALAVERPTYDGVIAGKVSGRNWKQPRTHRSSGRFVKNRKPDLEEMKRQREIKKAYKERVNELKEEIRSNKVEKRKKKEEREKRKKENVLRTGTKLQKITNPKTLKKISMSKKQRKQLKKIPDEMLSGGSKKSITN | not failed |
| MMQPKFCTRCLAMSTRPRITFNRDGVCNACLWQEQKSSVDWDDRNSKLLSLLDSHRSKNNSYDVIVPVSGGKDGSYVAYNLKHKFNMNPLCVTVTPPLETQLGAQNLKNFIKSGYDQVSININPETIRNINRAGFVHHGFPYFGWLVAIVTSVTRVAQQMNVPLIMYGEDAEMEYGGSSEKANLTTFGIEYMKRVGFEAGYEKVFSTLDLSDSDLYWLTFAEQDKTQVLFSHWSYFENWDPYRNYLVAKKQCGLQEADDTNFGTFTNFAQNDQYLYVLHTYLMYLKFGFGRSNQDACIEIRRGAMKREQAINLVRLYDGQFPDEFLQMYLEYYQMSEAEFNATLARWVNKDLFELKDGLWSPTFTIQ | failed |
| WIAQIHKTKTNYFLNLLKEGKIPLRPGIKRLLDELRKNNIKIAIATTTTYENVSTLLQCTLGDSALEWFDVIGAGDIVSKKKPAPDIYEWVLNQLNLPAEACIAIEDSENGLKSATAAGIKTIITISEYTREQNFSYAALVLEDLESTDHTHQIAAQSFDKPLSVQTLSDLLN | failed |
| MRRSDLHGTSIEIERKNVGERRYITGFDGLRVMALLGVIFYHLMPFTVPGGYLGVPIFFAVSGYLITDIFIQEWDRTGKIKLGSFYIRRLRRLYPTLVMVLVTSTAYMTLFAQNLLSHIRNIIWTNLVFVYNWWLVNNGQSYFDRYNGESPFTHLWYLSVLAQYYFIWPLILIVLLKIFGERRVQASGILFSLSIISSMLMTILYHPDTVNRVYYGSDTRVAPFLIGAALAFIWPSTRLKKALNARTNLIANILGGILILVMGITFFTMPGTTATPYYGGIFIFSILAVLMIAIIAHPSFMWNRLLTNPVFKWLGSRSYGIYMYQLPVMIFYEQKVTNIAAHPVLNTLAPLVIILVISELSYRYIEIPLAKFDYRQTFALLKKIFDLKSNLQWRRYLAIPAVLVVLIALFGAVTSPEKVVQKTDGLQTKLAKNSKEADKKNKEALEKQKETSAAKTKQKKAKLTKQEKEIAKKYQLTDQEMKFAAVTPLTGVGDSVLEDTGADLQEIFPTAYMSSKVGRQVDEAPGIIAELKRQKTLSDNVLINLGANGPISDKDVKAVEDAVGSKRHIFWVNVHVPTKTWEGSVNKTLDKATKQYKNLTVIDWFTPSKNQPGWFYGDYVHPNPDGSKQYATIVAKKIIKTLNK | failed |
| MPAFSLLPKPSALLPLLLAAAFLPPAFVHAEEEAAKDQPQAPVERPAVSERSQDEAKGLERQLPEDGQQILKAGDESFLTLWLPANTAEAEGVVILVPGDGESPDWPQAIGPLRRKLPDAGWQTLSLALPDPQSTAPVTRPAESAASASADKDASAADSASKPDVKGESGNAPAPESTAEAGSGEPAQSEDQAPPPAIDPVEQRKAHAERVMARLQASIDLALQHEPKSVVLLGHGTGAYWAARYLAEKEPAEIHNLLLVAAEVPRDFRPALEDMVPKLKLATGDFYYRDARADREAARLRMQAGKRQKHPAYVQIAMQALPADPKAEQEQLYRRIRGWLSLHLQADAQKPAE | failed |
| MSQFSTVWVLSDVLSPLPELMGGASSLGQSINVFTFNDEQSIAAFKLGATAVFQLEGKPDDRIMEDYAQSIVETIKSHSDAGLVLLPNTRRGKLFAARLGHRLAAVVSNDAQSLSTQNDTLVAKHMVYGGLAFSDETLTTPYCVVTASTGAFDVASETQATGTAQKVAWIAPSQSIICQSIQ | failed |
| MREGLRVLNSCNKVRGIFTLTQKTIKTFCFILAILVLIIFAVVFHNHSLEIIDYIDDLGWLAPVLFLITYCLATLLLLPTMVLTLAGGAVFGPVFGTLLNLLGATSGAALAFLITRHLVYDWFSTKKGEKLNKLIAGVDEKGWVFVAFLRLFPIVPFNLVNYGLGVTGISFRLYLLTTFIFLIPAEIIYTYFGYVGMDALTRPGHLYRNGGIFLTGLAIFFLLVIRIMKKR | failed |
| MASNGHTLRLVINRDKHDSVIRGLYLVTDHDDNLIPRVEAAIDGGARVVQYRNKNQDRESRLALGLELRELCRRRSIPFIVNDDLEMAVSLKADGLHLGQGDGDPREARRVLGPGKIIGVSTHTLSEALEAQAAGVDYIGLGAMFPSRSKEVEHVAGSELLAAIRSSISIPIVAIGGITRDNGASVIDAGADAVAVISAVLSHPDPALAATEIALLFNRRAPFPRGSVLTVAGSDSGGGAGIQADLKTVTLLGSYGSSVLTALTAQNTRGVSGIHGVPPAFVADQLDAVFSDIPVDVVKTGMLFSAETIVAIAAKLTEYRRRMVVVDPVMVAKGGANLIDRGAVSVLKERLFPLAYLVTPNIPEAERLTGANISDEESMREAARRLHRLGARNVLLKGGHLLAGDSVDILFDGAAFHRFVSPRILSKNTHGTGCTFASAIATYLAQGDPLREAIARAKRYITAAIRLAQPLGRGHGPVNHILAAEDVRDR | failed |
| MNKLSIIITYFNNEDYISECIHSLKSQRNQDFDIIVVDDGSTDRSTEILQEALKSYDKDVHFIQLQENTGHAHARNVALEQAHGQYVLFLDADDQLASYAVDYYLQHVNGLDTLIAPIHKFRSQRPQYVDKDKVRLQYASHQKSPNAILRKESACNILFKNAIIKAHQIQFNESLDIYADTSFVLEYLKYAERFVRITNFPFYYRGEVYDPFYGNTLSDQDFTNKFEDHVNSFFDAMQRTNDKRIKNFLIQRMKNEIKSGFDPALRDIKSRYVSLEDALIKIVKALKWNILKDGKVLYNLEILFLSMDDVENAKYVNDLRNKTRLVKNIVLNSKMKERSKYQLSDNEDLVDPNTIVFEAFGGKNYSDSPKYIYEYMQKHYPHLNYIWVFSKPENNNIPGNATKVKKGSQAYYDAYAKAKYWVTNARLPLYLNKKENQMYIQTWHGTPLKRLANDMKVVRMPGTTTANYKKNFYAEASRWDRLVSPNRYSSDIFKSAFWMDEDRIWEIGYPRNDVLVNRQNDTEYIEQIKRDLNLPADKKVIMYAPTWRDDEFVKKGQYLFDLKINLANLQKEIGDEYVILLRMHYLIANALDLHGYDDFAIDVSNYNDISELYLISDALVTDYSSVMFDFGILKRPQFFFAYDIEKYDKGLRGFYMDYMNDLPGEIITDEFKLAEELKQIDQHKVKYQDKIESFYNDFCSIENGKASQYIGDYIYKDIEKKS | failed |
| MSLAVTMFKRARAEIFDRNREVGISNVTTAASLVTFPVLAGILGGVVPSVRTPSAAMVSGVQHFAAGIVMAAVAGEVLPDLRSRGPLWLIVVGFSAGVAVLVALRRFDGHGEHQDGDDVGELPVGFLTVVAVDLFIDGLLVATGATVSSRTAIIITIALTVEVLFLGLAVALRLAGSGMPRIRAAATTSALSLVIAVGGVSGAVALGRAGNTVLTLVLAFAAGALLWLVVEELLVEAHETPERPWMAVMFFAGFLILYGLGVME | failed |
| MKNEVFFGEGMKVVAAAYPDLYDIIVKLNDTVFTGKTLDYKTQKLIAIGIVASRCDEVAIEKQMKSAMKELGITKEEIADVLRVVLLTSGMPAFTKAMKILEKL | not failed |
